Measured values as given in US5688911A, “Trk neurotrophin binding motifs” (priority 1995, dated 1997).
No end group written: not given here.

What was measured:
NGF = biological target: T1, NGF (Mus musculus, UniProt P01139); assay: Qualitative binding assay, receptor affinity, 125I-NGF; design: key: +neurotrophin binding; -no neurotrophin binding detectible; settings: Table 2
T1 construct: Mouse submaxillary gland NGF-β, was purchased from Sigma Immuno Chemicals; purchased Amersham (125I-NGFβ); Sigma Immuno Chemicals (unlabelled NGF-β); host or cells: mouse submaxillary gland

NT-4 = biological target: T2, NT-4 (Xenopus laevis, UniProt P24727); assay: Qualitative binding assay, receptor affinity, 125I-NT-4; design: key to 125I-Neurotrophin NTA binding (qualitative): +neurotrophin binding; -no neurotrophin binding detectible
T2 sequence (P24727 114-236): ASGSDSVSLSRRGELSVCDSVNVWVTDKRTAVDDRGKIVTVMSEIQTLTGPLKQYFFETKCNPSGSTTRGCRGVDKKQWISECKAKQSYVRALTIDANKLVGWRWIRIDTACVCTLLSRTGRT

BDNF = biological target: T3, BDNF (Mus musculus, UniProt P21237); assay: Qualitative binding assay, receptor affinity, 125I-BDNF; design: key: A "+" indicates binding of the neurotrophin in a qualitative binding assay using receptor affinity columns (no Kd determined); A "-" indicates that no binding of the neurotrophin to the respective receptor module could be detected
T3 sequence (P21237 131-249): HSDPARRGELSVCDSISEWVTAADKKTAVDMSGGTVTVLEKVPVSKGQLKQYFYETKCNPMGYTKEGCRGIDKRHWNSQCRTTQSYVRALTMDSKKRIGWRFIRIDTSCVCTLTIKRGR

NT-3 = biological target: T4, NT-3 (Mus musculus, UniProt P20181); assay: Qualitative binding assay, receptor affinity, 125I-NT-3; design: key: A "+" indicates binding of the neurotrophin in a qualitative binding assay using receptor affinity columns (no Kd determined); A "-" indicates that no binding of the neurotrophin to the respective receptor module could be detected
T4 sequence (P20181 140-258): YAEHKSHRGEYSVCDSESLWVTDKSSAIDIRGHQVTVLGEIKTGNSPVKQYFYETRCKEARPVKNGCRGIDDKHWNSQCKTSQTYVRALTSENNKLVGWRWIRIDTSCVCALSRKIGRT

rat TrkB = biological target: T5, rat TrkB (Rattus norvegicus, UniProt Q63604); settings: mouse NIH 3T3 fibroblasts expressing rat TrkB; cited from earlier work
T5 construct: host or cells: mouse NIH 3T3 fibroblasts (transfected)

TrkB receptors = settings: non-neuronal cells ectopically expressing TrkB; read-out: affinities; cited from earlier work

T5 sequence (Q63604 32-821): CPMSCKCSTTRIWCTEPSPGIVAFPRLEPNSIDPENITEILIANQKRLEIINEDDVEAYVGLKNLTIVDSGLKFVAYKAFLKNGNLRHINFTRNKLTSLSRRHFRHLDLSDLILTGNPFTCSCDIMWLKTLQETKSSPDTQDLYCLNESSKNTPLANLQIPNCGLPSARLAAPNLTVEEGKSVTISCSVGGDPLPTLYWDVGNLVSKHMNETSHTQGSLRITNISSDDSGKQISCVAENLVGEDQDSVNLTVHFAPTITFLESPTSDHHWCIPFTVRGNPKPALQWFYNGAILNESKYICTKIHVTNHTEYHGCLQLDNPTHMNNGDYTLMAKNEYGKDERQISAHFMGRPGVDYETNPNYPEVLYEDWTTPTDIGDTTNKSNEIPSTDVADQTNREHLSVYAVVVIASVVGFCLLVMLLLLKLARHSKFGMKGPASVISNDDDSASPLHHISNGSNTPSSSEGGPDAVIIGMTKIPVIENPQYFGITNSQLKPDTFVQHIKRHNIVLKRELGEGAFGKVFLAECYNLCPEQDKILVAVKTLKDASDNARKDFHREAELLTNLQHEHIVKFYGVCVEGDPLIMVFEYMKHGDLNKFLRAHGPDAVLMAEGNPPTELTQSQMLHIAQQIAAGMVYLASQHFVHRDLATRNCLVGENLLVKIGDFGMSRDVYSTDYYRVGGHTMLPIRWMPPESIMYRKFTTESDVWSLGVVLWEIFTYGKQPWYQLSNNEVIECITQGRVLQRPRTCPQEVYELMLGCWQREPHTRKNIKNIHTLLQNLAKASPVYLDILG
T1 sequence (P01139 122-241): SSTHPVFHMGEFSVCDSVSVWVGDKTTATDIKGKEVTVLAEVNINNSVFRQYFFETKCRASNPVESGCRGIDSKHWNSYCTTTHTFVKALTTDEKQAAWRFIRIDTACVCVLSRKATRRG

## TIVDSGLKFVAYKAFLKNGNLRHI (SEQ ID NO: 5) [TrkB L2]
NGF
  125I-Neurotrophin NGF binding (qualitative): -
NT-4; Table 2
  125I-Neurotrophin NTA binding (qualitative): +

## TIVKSGLRFVAPDAFHFTPRLSHL (SEQ ID NO: 4) (TIVKSGLRFVAPDAFHFTPRLSHL; also: MBP fusion partner) [TrkA L2, isolated 24 amino acid second leucine-rich motif of rat TrkA (Thr97-Leu120), MBP fusion]
BDNF
  BDNF binding (qualitative): -
NT-3
  NT-3 binding (qualitative): -

## TIKNSGLRSIQPRAFAKNPHLRYI (SEQ ID NO:3) (TIKNSGLRSIQPRAFAKNPHLRYI) [LRM2 of TrkC, 24 amino acid second leucine rich motif of TrkC]
NT-4; data not shown
  binding of neurotrophin-4: found to bind neurotrophin-4

## NT-3: neurotrophin 3; iodinated form in binding studies
Rat TrkB
  Kd: ~1.3 nM
TrkB receptors
  Kd: ~1 nM

B1: BDNF: Brain-derived neurotrophic factor, a neurotrophin; iodinated form in binding studies (protein, UniProt P23560 19-247, looked up)
Neurotrophic factor BDNF …: APMKEANIRGQGGLAYPGVRTHGTLESVNGPKAGSRGLTSLADTFEHVIEELLDEDQKVRPNEENNKDADLYTSRVMLSSQVPLEPPLLFLLEEYKNYLDAANMSMRVRRHSDPARRGELSVCDSISEWVTAADKKTAVDMSGGTVTVLEKVPVSKGQLKQYFYETKCNPMGYTKEGCRGIDKRHWNSQCRTTQSYVRALTMDSKKRIGWRFIRIDTSCVCTLTIKRGR
modifications: 125I label
Rat TrkB
  Kd: ~1.8 nM
TrkB receptors
  Kd: ~1 nM
